Target: endogenous CSK (Jurkat) (UniProt P41240)
Test: GST pull-down, CSK immunoblot densitometry
Settings: Jurkat cell lysates (3×10^8 cells divided into five tubes); GST alone lane 0.00; parent: 84.98

Sequence of endogenous CSK (Jurkat) (P41240 whole entry): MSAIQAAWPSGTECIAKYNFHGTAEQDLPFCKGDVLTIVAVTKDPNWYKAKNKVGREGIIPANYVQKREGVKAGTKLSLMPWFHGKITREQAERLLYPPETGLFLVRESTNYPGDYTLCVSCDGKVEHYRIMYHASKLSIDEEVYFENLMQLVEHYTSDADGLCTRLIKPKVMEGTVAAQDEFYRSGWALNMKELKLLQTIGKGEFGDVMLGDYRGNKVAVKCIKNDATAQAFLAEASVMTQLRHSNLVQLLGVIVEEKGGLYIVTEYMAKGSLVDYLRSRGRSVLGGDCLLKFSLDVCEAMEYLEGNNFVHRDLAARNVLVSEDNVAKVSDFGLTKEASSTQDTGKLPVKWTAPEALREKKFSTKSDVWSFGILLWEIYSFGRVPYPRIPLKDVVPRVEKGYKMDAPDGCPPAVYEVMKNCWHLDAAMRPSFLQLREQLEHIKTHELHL

## LYP P1 motif (Arg620) fused to GST R620W
  response (arbitrary units): -0
